Results from IntAct's records for PubMed 12813456.

B1: Protein E7 (Human papillomavirus type 16), P03129 (parent)
chain: MHGDTPTLHEYMLDLQPETTDLYCYEQLNDSSEEEDEIDGPAGQAEPDRAHYNIVTFCCKCDSTLRLCVQSTHVDIRTLEDLLMGTLGIVCPICSQKP

Variants of: B1
Conditions: with kat2b_human KAT2B

Variant	effect of a mutation on the interaction
L67A	decreasing interaction strength
